From patent US7261890
One block for each binder: values may come before it.

Assays:
[1] = molecular target: recombinant canine IgE (canine); assay: IgE binding ELISA of COS supernatant; second number is the relative expression level
[2] = molecular target: recombinant canine IgE (canine); assay: IgE binding ELISA, COS supernatant on plate-coated recombinant canine IgE, anti-dog Fc-HRP
[3] = molecular target: recombinant canine IgE (canine); assay: OD of IgE binding ELISA divided by IgG expression relative to chimeric 15A2, COS supernatant
[4] = molecular target: recombinant canine IgE (canine); assay: IgE binding ELISA of COS supernatant; in this cell the order is reversed (2.4 is the relative expression of Table 5, 0 the OD)

OD of IgE Binding (printed over relative expression level) [1]: 1.3 OD 650 nm
OD at 650 nm (IgE Binding) [2]: 1.3 OD 650 nm
Ratio IgE Binding/Expression [3]: 13
B1: H74-1 caninized heavy chain with 15A2 chimeric light chain Lx (antibody, part only; not given: constant regions, V domains shown, part only)
VH: EVQLVQSAAEVKKPGASVKVSCKTSGYSFTDYFMNWVQQAPGAGLDWMGRINPFNGDPFYNQKFKGRVTLTADTSTSTAYMELSSLRAEDAAVYYCARFYYGRYYAMDYWGQGTLVTV

OD of IgE Binding (printed over relative expression level) [4]: 0 OD 650 nm
B2: H74-1 / Group 2-1 (CDR-grafted caninized 15A2, heavy and light) (antibody, part only; not given: constant regions, V domains shown, part only)
VH: B1 VH
